In experiment [1] the target is T1, p38α (MAPK14), nonphosphorylated (mouse, UniProt P47811 1-360). Briefly: FP; displacement of fluorescein-labeled MKK3b peptide.
Experiment [2] has as its target T2, dual (pThr180, pTyr182) phosphorylated p38α (mouse, UniProt P47811 1-360, phosphothreonine at 180, phosphotyrosine at 182). Briefly: ITC; p38α dually phosphorylated. (Isothermal titration calorimetry measures the heat released or taken up as one component is titrated into another.)
For experiment [3], the target named is T1, p38α (MAPK14), nonphosphorylated. Nature of the experiment: ITC.
For experiment [4], the target named is T2, dual (pThr180, pTyr182) phosphorylated …. Nature of the experiment: ITC; p38α dually phosphorylated; TAB1 pSer423.

T1 sequence (P47811 whole entry): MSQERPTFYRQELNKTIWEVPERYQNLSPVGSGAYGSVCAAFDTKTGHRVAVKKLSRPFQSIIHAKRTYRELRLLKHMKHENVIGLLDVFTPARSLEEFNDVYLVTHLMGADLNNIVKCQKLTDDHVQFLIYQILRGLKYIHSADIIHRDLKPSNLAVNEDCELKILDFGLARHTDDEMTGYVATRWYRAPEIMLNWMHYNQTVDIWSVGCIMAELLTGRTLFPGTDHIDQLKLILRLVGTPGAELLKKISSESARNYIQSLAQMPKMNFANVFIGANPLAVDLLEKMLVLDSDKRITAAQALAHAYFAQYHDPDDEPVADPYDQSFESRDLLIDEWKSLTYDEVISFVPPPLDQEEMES
T2 sequence (P47811 whole entry): as above

A word on the IC50: it is the point on the concentration scale where inhibition reaches its midpoint. Read a low IC50 as higher potency. In experiment [1], Ac-GKSKRKKDLRISCMSKP-NH2 [MKK3b peptide, unlabeled] registered an IC50 of 15000 nM.

In general, Kd refers to the constant that tells how readily two partners part at equilibrium. Read a high Kd as weaker binding. Turning to Ac-RVYPVSVPYSSAQSTSKTSVTLSLVMPSQ-NH2 [TAB1 (residues 384–412) peptide], the Kd in experiment [2] came to 2000 nM; in experiment [3], 2900 nM. The molecule further had an IC50 in experiment [1] of 11000 nM.

B1: TAB1 (residues 1–438) (domain or fragment)
chain: MAAQRRSLLQSEQQPSWTDDLPLCHLSGVGSASNRSYSADGKGTESHPPEDNWLKFRSENNCFLYGVFNGYDGNRVTNFVAQRLSAELLLGQLNTEHTEADVRRVLLQAFDVVERSFLESIDDALAEKASLQSQLPEGVPQHQLPPQYQKILERLKALEREISGGAMAVVAVLLNSKLYVANVGTNRALLCKSTVDGLQVTQLNMDHTTENEDELFRLSQLGLDAGKIKQMGVICGQESTRRIGDYKVKYGYTDIDLLSAAKSKPIIAEPEIHGAQPLDGVTGFLVLMSEGLYKALEAAHGPGQANQEIAAMIDTEFAKQTSLDAVAQAVVDRVKRIHSDTFASGGERAKFCPRHEDMTLLVRNFGYPLGEMSQPTPTPAPGGRVYPVSVPYSSAQSTSKTSVTLSLVMPSQGQMVNGSHSASTLDEATPTLTNQSPT
B1: the Kd in experiment [3] is 1500 nM.

B2: TAB1 (residues 1–438) phosphorylated at Serine 423 (domain or fragment)
chain: MAAQRRSLLQSEQQPSWTDDLPLCHLSGVGSASNRSYSADGKGTESHPPEDNWLKFRSENNCFLYGVFNGYDGNRVTNFVAQRLSAELLLGQLNTEHTEADVRRVLLQAFDVVERSFLESIDDALAEKASLQSQLPEGVPQHQLPPQYQKILERLKALEREISGGAMAVVAVLLNSKLYVANVGTNRALLCKSTVDGLQVTQLNMDHTTENEDELFRLSQLGLDAGKIKQMGVICGQESTRRIGDYKVKYGYTDIDLLSAAKSKPIIAEPEIHGAQPLDGVTGFLVLMSEGLYKALEAAHGPGQANQEIAAMIDTEFAKQTSLDAVAQAVVDRVKRIHSDTFASGGERAKFCPRHEDMTLLVRNFGYPLGEMSQPTPTPAPGGRVYPVSVPYSSAQSTSKTSVTLSLVMPSQGQMVNGSHSASTLDEATPTLTNQSPT
modifications: phosphoserine at 423
With B2, the dissociation constant (Kd) in experiment [4] is 1700 nM.
